Consider 7 molecules from patent US20260242497A1 (VIAL HEALTH TECHNOLOGY, published 2026).

Numbering of substitutions follows the chain as printed. Names and notes keep the numbering of the source.

B1: AB_TL1A_02_004_HL1 (antibody, human IgG1, kappa)
heavy: QVQLVQSGAEVKKPGASVKVSCKASGYDFTYYGISWVRQAPGQGLEWMGWISPYNGNTHYAQKLQGRVTMTTDTSTRTAYMELRSLRSDDTAVYYCARENYYGSGAYRGGMDVWGQGTTVTVSSASTKGPSVFPLAPSSKSTSGGTAALGCLVKDYFPEPVTVSWNSGALTSGVHTFPAVLQSSGLYSLSSVVTVPSSSLGTQTYICNVNHKPSNTKVDKKVEPKSCDKTHTCPPCPAPEAAGAPSVFLFPPKPKDTLYITREPEVTCVVVDVSHEDPEVKFNWYVDGVEVHNAKTKPREEQYNSTYRVVSVLTVLHQDWLNGKEYKCKVSNKALPAPIEKTISKAKGQPREPQVYTLPPSREEMTKNQVSLTCLVKGFYPSDIAVEWESNGQPENNYKTTPPVLDSDGSFFLYSKLTVDKSRWQQGNVFSCSVMHEALHNHYTQKSLSLSPG
light: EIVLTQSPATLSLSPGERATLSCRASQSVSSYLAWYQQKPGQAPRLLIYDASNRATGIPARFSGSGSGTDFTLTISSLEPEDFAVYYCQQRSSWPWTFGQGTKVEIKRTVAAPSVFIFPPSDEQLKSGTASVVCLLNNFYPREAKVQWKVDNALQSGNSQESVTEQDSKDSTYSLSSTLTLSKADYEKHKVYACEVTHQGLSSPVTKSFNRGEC
B2: AB_IL13_02_001_HL9 (antibody, human IgG1, kappa, L234A L235A)
heavy: EVQLQESGPGLVKPSETLSLTCTVSGFSLNAYSVNWIRQPPGKGLEWLGMIWGDGKIVYNSALKSRLTISKDSSKNQVSLKLSSVTAADTAVYYCAGDGYYPYFMDNWGQGTTVTVSSASTKGPSVFPLAPSSKSTSGGTAALGCLVKDYFPEPVTVSWNSGALTSGVHTFPAVLQSSGLYSLSSVVTVPSSSLGTQTYICNVNHKPSNTKVDKKVEPKSCDKTHTCPPCPAPEAAGGPSVFLFPPKPKDTLMISRTPEVTCVVVDVSHEDPEVKFNWYVDGVEVHNAKTKPREEQYNSTYRVVSVLTVLHRDWLNGKEYKCKVSNKALPAPIEKTISKAKGQPREPQVYTLPPSRDELTKNQVSLTCLVKGFYPSDIAVEWESNGQPENNYKTTPPVLDSDGSFFLYSKLTVDKSRWQQGNVFSCSVLHEALKFHYTQKSLSLSPG
light: DIQLTQSPSSLSASVGDRVTITCRASKSVDSYGNSFMHWYQQKPGKAPKLLIYLASNLESGVPSRFSGSGSGTDFTLTISSLQPEDFATYYCQQNNEDPRTFGGGTKVEIKRTVAAPSVFIFPPSDEQLKSGTASVVCLLNNFYPREAKVQWKVDNALQSGNSQESVTEQDSKDSTYSLSSTLTLSKADYEKHKVYACEVTHQGLSSPVTKSFNRGEC
B3: AB_IL13_02_004_HL9 (antibody, human IgG1, kappa, L234A L235A)
heavy: B2 heavy with F104A, N107G
light: B2 light
B4: AB_IL1b_02_003_HL9 (antibody, human IgG4 S228P, kappa, F234A L235A)
heavy: EVQLVESGGGLVQPGGSLRLSCAASGFTFSDHYMSWIRQAPGKGLEWVSYISSSGSTIYYADSVKGRFTISRDNAKNSLYLQMNSLRAEDTAVYYCAREYDSSGYYYVGVDFWGQGTLVTVSSASTKGPSVFPLAPCSRSTSESTAALGCLVKDYFPEPVTVSWNSGALTSGVHTFPAVLQSSGLYSLSSVVTVPSSSLGTKTYTCNVDHKPSNTKVDKRVESKYGPPCPPCPAPEAAGGPSVFLFPPKPKDTLMISRTPEVTCVVVDVSQEDPEVQFNWYVDGVEVHNAKTKPREEQFNSTYRVVSVLTVLHRDWLNGKEYKCKVSNKGLPSSIEKTISKAKGQPREPQVYTLPPSQEEMTKNQVSLTCLVKGFYPSDIAVEWESNGQPENNYKTTPPVLDSDGSFFLYSRLTVDKSRWQEGNVFSCSVLHEALKFHYTQKSLSLSLG
light: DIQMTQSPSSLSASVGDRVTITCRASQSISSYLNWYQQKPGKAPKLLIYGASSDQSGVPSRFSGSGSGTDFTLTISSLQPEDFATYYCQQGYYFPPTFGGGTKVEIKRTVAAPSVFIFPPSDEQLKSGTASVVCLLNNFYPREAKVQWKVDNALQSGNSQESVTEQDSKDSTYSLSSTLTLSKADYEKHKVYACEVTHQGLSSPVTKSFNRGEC
notes: Anti-IL1β antibody with Q311R, M428L, H433K, N434F
B5: AB_IL13_TSLP_BsAb_ISTF_003 (bispecific antibody)
chain 1: EVQLVQSGAEVKKPGSSVKVSCKASGYTFSNYLIEWVRQAPGQGLEWIGVIDPGVGDTNYNENFKGRATLTADKSTSTAYIELSSLRSEDTAVYYCAREDNPGTAFDYWGQGTTVTVSSASTKGPSVFPLAPSSKSTSGGTAALGCLVKDYFPEPVTVSWNSGALTSGVHTFPAVLQSSGLYSLSSVVTVPSSSLGTQTYICNVNHKPSNTKVDKRVEPKSCDKTHTCPPCPAPEAAGGPSVFLFPPKPKDTLMISRTPEVTCVVVDVSHEDPEVKFNWYVDGVEVHNAKTKPREEQYNSTYRVVSVLTVLHQDWLNGKEYKCKVSNKALPAPIEKTISKAKGQPREPQVYTLPPCREEMTKNQVSLWCLVKGFYPSDIAVEWESNGQPENNYKTTPPVLDSDGSFFLYSKLTVDKSRWQQGNVFSCSVLHEALHSHYTQKSLSLSPGK
chain 2: SIVMTQTPLSLSVTPGQPASISCKASQSVSSDVTWYLQKPGQSPQLLIYYVSEHYTGVPDRFSGSGYGTDFTLKISRVEAEDVGVYYCQQHHRFPLTFGQGTKLEIKRTVAAPSVFIFPPSDEQLKSGTASVVCLLNNFYPREAKVQWKVDNALQSGNSQESVTEQDSKDSTYSLSSTLTLSKADYEKHKVYACEVTHQGLSSPVTKSFNRGEC
chain 3: DIQLTQSPSSLSASVGDRVTITCRASKSVDSYGNSFMHWYQQKPGKAPKLLIYLASNLESGVPSRFSGSGSGTDFTLTISSLQPEDFATYYCQQNNEDPRTFGCGTKVEIKGGGGSGGGGSGGGGSGGGGSEVQLQESGPGLVKPSETLSLTCTVSGFSLNAYSVNWIRQPPGKCLEWLGMIWGDGKIVYNSALKSRLTISKDSSKNQVSLKLSSVTAADTAVYYCAGDGYYPYAMRNWGQGTTVTVSSEPKSSDKTHTCPPCPAPEAAGGPSVFLFPPKPKDTLMISRTPEVTCVVVDVSHEDPEVKFNWYVDGVEVHNAKTKPREEQYNSTYRVVSVLTVLHQDWLNGKEYKCKVSNKALPAPIEKTISKAKGQPREPQVCTLPPSREEMTKNQVSLSCAVKGFYPSDIAVEWESNGQPENNYKTTPPVLDSDGSFFLVSKLTVDKSRWQQGNVFSCSVLHEALHSHYTQKSLSLSPGK
B6: AB_IL13_TSLP_BsAb_ISTF_003_HL9 (bispecific antibody, human IgG1, kappa, L234A L235A)
heavy: B5 chain 1 with Q313R, H435K, S436F
light: B5 chain 2
scFv: B5 chain 3 with Q345R, H467K, S468F
notes: Anti-TSLP Fab arm (HC + LC) and anti-IL13 scFv-Fc arm
B7: AB_IL15_AI_02_077_HL9 (antibody, human IgG1, kappa, L234A L235A)
heavy: EVQLVESGGGLVQPGGSLRLSCAASEFTFSNYAMSWVRQAPGKGLEWVATISRGGDYHYYPDSVKGRFTISRDNSKNTLYLQMNSLRAEDTAVYYCARRVSMITGGWAHDYWGQGTLVTVSSASTKGPSVFPLAPSSKSTSGGTAALGCLVKDYFPEPVTVSWNSGALTSGVHTFPAVLQSSGLYSLSSVVTVPSSSLGTQTYICNVNHKPSNTKVDKRVEPKSCDKTHTCPPCPAPEAAGGPSVFLFPPKPKDTLMISRTPEVTCVVVDVSHEDPEVKFNWYVDGVEVHNAKTKPREEQYNSTYRVVSVLTVLHRDWLNGKEYKCKVSNKALPAPIEKTISKAKGQPREPQVYTLPPSREEMTKNQVSLTCLVKGFYPSDIAVEWESNGQPENNYKTTPPVLDSDGSFFLYSKLTVDKSRWQQGNVFSCSVLHEALKFHYTQKSLSLSPGK
light: DVVMTQSPLSLPVTLGQPASISCRSSQSIVDITGNTYLEWYQQRPGQSPRLLIYKVFNRFSGVPDRFSGSGSGTDFTLKISRVEAEDVGVYYCFQDSFVPYTFGQGTKLEIKRTVAAPSVFIFPPSDEQLKSGTASVVCLLNNFYPREAKVQWKVDNALQSGNSQESVTEQDSKDSTYSLSSTLTLSKADYEKHKVYACEVTHQGLSSPVTKSFNRGEC
notes: Anti-IL15 antibody with Q311R, M428L, H433K, N434F

The assay deals with T1, human FcRn (human, UniProt P55899 24-297; P61769 21-119).
T1 construct: also called neonatal Fc receptor
T1 sequence (P55899 24-297 limits assumed, chain 1 of 2): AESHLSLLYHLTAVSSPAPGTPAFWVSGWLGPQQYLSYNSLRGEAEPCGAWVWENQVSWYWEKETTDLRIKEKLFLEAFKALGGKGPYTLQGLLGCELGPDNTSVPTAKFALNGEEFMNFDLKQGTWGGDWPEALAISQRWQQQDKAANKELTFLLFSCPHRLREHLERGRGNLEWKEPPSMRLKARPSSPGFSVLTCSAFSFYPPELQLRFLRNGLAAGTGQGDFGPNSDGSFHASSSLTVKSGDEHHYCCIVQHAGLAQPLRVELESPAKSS
T1 sequence (P61769 21-119 limits assumed, chain 2 of 2): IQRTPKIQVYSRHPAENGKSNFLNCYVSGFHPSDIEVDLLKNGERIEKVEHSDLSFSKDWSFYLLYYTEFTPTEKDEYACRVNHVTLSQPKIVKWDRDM
Put plainly: SPR, Biacore 8K, CM5 chip, antibody immobilised, human FcRn as analyte, pH 6.0. (In general: In SPR one partner is held on a chip, and binding of the other changes the refractive index at the surface.)
Description: The 1×PBST running buffer was prepared at both pH 6.0 and pH 7.4. Kinetic measurements were obtained for association and dissociation times of 60 and 90 seconds, respectively, at a flow rate of 30 μL/min. The CM5 chips were regenerated with 1×PBS (pH 7.4). Kinetic parameters for the concentration series at both pHs were fit to a steady state affinity model and averaged using the Biacore Evaluation Software. Each concentration series was fit independently to obtain the average rates and binding affinities.
SPR analysis was performed using a Bioacore 8K instrument and a CM5 with the antibody immobilized at 10 g/mL concentration, as above.
In general, Kd refers to the concentration at which binding is half-saturated. A low value points to a tighter complex. Regarding B1, the “Fold Increase (FI) relative to Rituximab” value was 9.8 fold and the Kd stood at 218 nM.

For B2, the “Fold Increase (FI) relative to Rituximab” value was 47.5 fold and the Kd came out at 44.8 nM.

As to B3, the “Fold Increase (FI) relative to Rituximab” value is 45.9 fold and the affinity, expressed as Kd, was 46.4 nM.

As for B4, the “Fold Increase (FI) relative to Rituximab” value is 50.4 fold and the Kd was 42.3 nM.

In the case of B5, the “Fold Increase (FI) relative to Rituximab” value was found to be 20.7 fold and the Kd worked out at 103 nM.

Regarding B6, the “Fold Increase (FI) relative to Rituximab” value was found to be 48.5 fold and binding was put at a Kd of 43.9 nM.

Take B7: the “Fold Increase (FI) relative to Rituximab” value worked out at 38.1 fold and binding was put at a Kd of 55.9 nM.
